From IntAct's records for PubMed 29039417

B1: Protein PTHB1 (Homo sapiens), Q3SYG4 (parent)
chain: MSLFKARDWWSTILGDKEEFDQGCLCLANVDNSGNGQDKIIVGSFMGYLRIFSPHPAKTGDGAQAEDLLLEVDLRDPVLQVEVGKFVSGTEMLHLAVLHSRKLCVYSVSGTLGNVEHGNQCQMKLMYEHNLQRTACNMTYGSFGGVKGRDLICIQSMDGMLMVFEQESYAFGRFLPGFLLPGPLAYSSRTDSFLTVSSCQQVESYKYQVLAFATDADKRQETEQQKLGSGKRLVVDWTLNIGEQALDICIVSFNQSASSVFVLGERNFFCLKDNGQIRFMKKLDWSPSCFLPYCSVSEGTINTLIGNHNNMLHIYQDVTLKWATQLPHIPVAVRVGCLHDLKGVIVTLSDDGHLQCSYLGTDPSLFQAPNVQSRELNYDELDVEMKELQKIIKDVNKSQGVWPMTEREDDLNVSVVVSPNFDSVSQATDVEVGTDLVPSVTVKVTLQNRVILQKAKLSVYVQPPLELTCDQFTFEFMTPDLTRTVSFSVYLKRSYTPSELEGNAVVSYSRPTDRNPDGIPRVIQCKFRLPLKLICLPGQPSKTASHKITIDTNKSPVSLLSLFPGFASQSDDDQVNVMGFHFLGGARITVLASKTSQRYRIQSEQFEDLWLITNELILRLQEYFEKQGVKDFACSFSGSIPLQEYFELIDHHFELRINGEKLEELLSERAVQFRAIQRRLLARFKDKTPAPLQHLDTLLDGTYKQVIALADAVEENQGNLFQSFTRLKSATHLVILLIALWQKLSADQVAILEAAFLPLQEDTQELGWEETVDAAISHLLKTCLSKSSKEQALNLNSQLNIPKDTSQLKKHITLLCDRLSKGGRLCLSTDAAAPQTMVMPGGCTTIPESDLEERSVEQDSTELFTNHRHLTAETPRPEVSPLQGVSE
partner: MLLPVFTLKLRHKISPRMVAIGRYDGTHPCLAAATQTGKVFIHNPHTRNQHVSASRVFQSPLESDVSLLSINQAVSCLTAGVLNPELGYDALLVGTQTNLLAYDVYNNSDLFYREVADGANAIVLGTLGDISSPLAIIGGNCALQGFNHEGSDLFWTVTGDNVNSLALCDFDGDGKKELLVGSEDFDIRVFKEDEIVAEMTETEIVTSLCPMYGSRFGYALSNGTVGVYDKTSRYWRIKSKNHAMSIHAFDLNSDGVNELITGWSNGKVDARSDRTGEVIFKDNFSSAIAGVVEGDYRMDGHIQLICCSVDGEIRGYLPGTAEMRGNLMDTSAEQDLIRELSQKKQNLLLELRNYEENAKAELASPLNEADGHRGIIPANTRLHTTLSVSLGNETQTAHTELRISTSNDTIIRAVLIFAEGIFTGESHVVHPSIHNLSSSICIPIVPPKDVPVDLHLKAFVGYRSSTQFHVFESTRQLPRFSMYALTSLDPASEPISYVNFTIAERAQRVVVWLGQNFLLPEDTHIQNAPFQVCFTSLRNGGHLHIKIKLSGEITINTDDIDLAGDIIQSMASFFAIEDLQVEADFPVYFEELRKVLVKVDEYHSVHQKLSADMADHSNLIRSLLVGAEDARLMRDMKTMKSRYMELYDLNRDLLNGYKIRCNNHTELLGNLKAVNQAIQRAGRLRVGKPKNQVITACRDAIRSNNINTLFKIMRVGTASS

Variants of: B1
Conditions: with bbs2_human BBS2, Q9BXC9

Variant | effect of a mutation on the interaction
H811K | with no effect
T484A | with no effect
Q569E | with no effect
Q569K | with no effect
L529K | with no effect
E654K | with no effect
E654A | with no effect
L815E | with no effect
L695A | with no effect
K542A | with no effect
E406A | with no effect
L699K | disrupting interaction strength
V590A | with no effect
F421E | with no effect
P537E | with no effect
V450K | with no effect
R510K | with no effect
R510A | with no effect
R674A | with no effect
G585R | disrupting interaction strength
P689S | disrupting interaction strength
G841E | with no effect
F624N | disrupting interaction strength
F624K | with no effect
I617E | with no effect
K781A | with no effect

Variant | effect of a mutation on the interaction
T613A | with no effect
Y490K | with no effect
Q835M | disrupting interaction strength
Q835A | with no effect
H581E | with no effect
H581P | disrupting interaction strength
D608A | with no effect
P479K | with no effect
P511E | with no effect
C826A | with no effect
T874A | with no effect
L727K | with no effect
F472E | with no effect
L465E | with no effect
R818A | with no effect
M477A | with no effect
L665R | disrupting interaction strength
F646A | with no effect
P847K | with no effect
F724K | with no effect
V440A | with no effect
E852A | with no effect
D650E | with no effect
G638E | with no effect
R854K | with no effect
S439K | with no effect

Variant | effect of a mutation on the interaction
R587A | with no effect
I550E | with no effect
S886K | with no effect
R683E | with no effect
L467E | with no effect
S568K | with no effect
S541E | with no effect
L681K | with no effect
S561E | with no effect
Q453A | with no effect
L692E | with no effect
R726E | with no effect
R726K | with no effect
R726A | with no effect
V506E | with no effect
F864E | with no effect
R598K | with no effect
R598A | with no effect
L698A | with no effect
G718E | with no effect
I640E | with no effect
A504K | with no effect
P881E | with no effect
E853A | with no effect
D804E | with no effect
D804K | with no effect

Variant | effect of a mutation on the interaction
I601A | with no effect
E647A | with no effect
Q858E | with no effect
Q791S | disrupting interaction strength
P691A | with no effect
D513A | with no effect
V417A | with no effect
Q748E | with no effect
C535E | with no effect
Y623A | with no effect
D572K | with no effect
D711K | with no effect
D711A | with no effect
E466A | with no effect
G584K | with no effect
L559A | with no effect
A567E | with no effect
H867K | with no effect
R679E | with no effect
S486K | with no effect
A710K | with no effect
C783K | with no effect
N420E | with no effect
P530L | disrupting interaction strength
T512A | with no effect
L481A | with no effect

Variant | effect of a mutation on the interaction
L481E | with no effect
R619K | with no effect
M837K | disrupting interaction strength
S488K | with no effect
F527K | with no effect
P438A | with no effect
P464E | with no effect
P464K | with no effect
T405E | with no effect
S637A | with no effect
I812A | with no effect
E625K | with no effect
E499A | with no effect
A670K | with no effect
A670E | with no effect
L616A | with no effect
T697E | with no effect
P834K | with no effect
S558K | with no effect
S828K | with no effect
S828E | with no effect
E668K | with no effect
T861A | with no effect
A682K | with no effect
T445E | with no effect
L591K | with no effect

Variant | effect of a mutation on the interaction
E753A | with no effect
G433K | with no effect
T865K | with no effect
G823E | with no effect
F653E | with no effect
I801A | with no effect
Q722K | with no effect
L533A | with no effect
I846K | with no effect
F684E | with no effect
P540A | with no effect
R868A | with no effect
R868K | with no effect
S423A | with no effect
S745E | with no effect
A675H | disrupting interaction strength
Q597R | disrupting interaction strength
S849E | with no effect
T595S | disrupting interaction strength
N796K | with no effect
L611E | with no effect
K743A | with no effect
L583E | with no effect
D429A | with no effect
R521T | disrupting interaction strength
T496A | with no effect

Variant | effect of a mutation on the interaction
V430K | with no effect
Q605K | with no effect
T441E | with no effect
T441K | with no effect
W741R | disrupting interaction strength
W741S | disrupting interaction strength
T829K | with no effect
G822A | with no effect
L827K | with no effect
E873K | with no effect
S458A | with no effect
S596A | with no effect
L780A | with no effect
I751K | with no effect
S507A | with no effect
N866A | with no effect
N866E | with no effect
L500K | with no effect
V734E | with no effect
V629K | with no effect
G767K | with no effect
A730E | with no effect
V461A | with no effect
